Reference: the domain aggregation screens of Martell et al. (2025)

assay: soluble fraction after stress (log2 fold change); higher = more stays soluble; pooled small domains, quantitative proteomics; conditions: stress: pH 4
Method in brief: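 Following acid stress at pH 4, the amount of each small protein domain still soluble was measured in pooled custom libraries by high-throughput quantitative proteomics. Its fold change, on a log2 scale, is higher when more of the domain stayed soluble. This fold change is taken as a measure of aggregation propensity.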

Sequence	soluble fraction (log2)
HMQEEFVAPDVKDGAIVLHKAFGEGTVTKIDKAQKHIRVTFGVGEKTFIFPDAFKQGFLRMKG	0.222
HMEETAFEKLSPLQKLRALGKPLTMINMRDGSQIAGSVQRSDDKFLYLDTGDGIAKLPVEEILRRTPM	0.13
HMKPMNNNDILRRLRYTFDLSDDKMMETFALGGYEANRSEISDWLKKDDHPEQKSLYDKSLSHFLNGFIV	-0.085
HMSIGLEDLIEQKGVADTDLRPSGWINVGNQRIFVVTEGSYIDQNDNVIILSVDGNRVVVRKI	-0.941
HMTGRHEEAIQELKRTLELHPQKPKIFLLLGVSYLRLNNLKKAVEAFNTVLLLQPKNQKALTMLKEIKKR	-0.113
HMNAEWMFDARKIPGLVMNYLRRIAVRAIEEKHYSPELVADLFGIDRTSIYDWLRKYRQQGEEALDTRKA	0.0142
HMKTLDAFFDQARDAYKKLKKDGDIDNLKVLRNQLQTVRETQGDAVRKKSKEEYRRLVDIIDDIDGLLAAF	-0.154
HMQNSPVFAASDIEDIRVGMTVEHQRFGQGRVMSIEGNGPNKKTTVLFEGIGEKQLLLQYAKLKIV	-0.242
HMGTSQSAVKAILAQLISDENKQKPYSDEALSRLLQQQGIDIARRTVAKYREALNIPPAHQRK	0.365
HMKSNKEKIYDFIQMHDTAEKEGGVSTTYIAQALSLQRTNVSSLLNALVEEGRIHKSNGRPVLYSIAG	0.178
HMKKPIYLTIANDIEKKIFNNDYPKNERLPSERNLAEEYGVTRMTIRNSIEYLVSKGLLEKRLGSGNYVKR	≥ 0.43
HMGAWQQTGFFRNRENAESLAEVLRQRGFSPVVREDTRPSGTVYYAVLVPDDGTTAARLKDAGIDSYPV	0.367
HMSDVTPDVVRALRKRLKLTQVQFGEIFGMTSKKVSAWEHGKAEPTEEQKQKIQSLLKENNEQ	0.141
HMFGQRLRLARKRAGLSMQALAQRMSPPVTAQAISKYEADRMMPSSAVLVGLGKALGVSLDFLMGGQ	0.068
HMLLNTSQLKELYNRYDKKNSSLISIPFSAISDEPLKFYKWYAALFQIELNVKAFADVDSKQIIIYKGTK	-0.175
HMQVIDNHWRPSRDALDILLRDGISEHFIEDAIPEFILYWRERGTQDSNWNSRFLQHIRLQWARYTNAV	-0.936
HMNPAIYIRKNILNLTQEKLSEYLDVTQPTIHRWEESGVIPAKHQRQIREFASEKGIYWNDSWFFSIPDE	-1.2
HMDLMSTNEKLLYTMRYLISKSLDGAITEEEIRRLDRLIIENSQARAYYVEYLQIHTHLRKLMQQNPELK	-1.15
HMKEILVGVEPLSKKQIIIKKGIKGRSDYIIFEKKNYGLPENLKPEEVSIEIALKIIDEKKKRKA	0.22
HMEEKTMNLPPSAKLVYKILSYEGNLTQKEIINMTYLPERTVRHALELLLGKRLITRQAYLNDARQSVYG	-0.265
HMGIYFIIAAKNQENNIEEFIRTTLFRIVYGKEESINNITLVDLKSKDNTKNIMEEIARENENVKV	-0.696
HMPSKKHARWIELEARKFMADNEDAVSDLHELRTRAANFAALKTSTLPVDQHRAIVAGFVARVNELGRRI	-0.19
HMHGESIPIPNILHKRYADAEQIVNNLRLEIEVTDTGYVRSLPPGAILEQTPGPGERVKSGHIIYVTINAA	-0.0135
HMSVTMPNLVGLDEQTAVTRINSSNLSYGSTNYVHSDHEAGVVFKQSTPAYTEVDEHTKIYIWVSLGPEE	-0.145
HMQSVEELLDAIGDERLLHILLEADRKTLQIVVLKMMGYAPKEIGSHIGMPEQTVYTKLRRLREKIKKI	-1.07

Sequence	soluble fraction (log2)
HMGVIGADIRALRVSRGWTLSDLAEALDRSVGWLSQVERDVSEPALADIRRIAGIFDLPVSFFFSD	-1.64
HMVITPESVKEQVLAIISKSPAQGFNYKQISKRLNINDPSERKMVSDILRELSESGTIEEINKGKYRAKV	-0.055
HMDSPALAIPSSAILRDGLEHIFFRQDPSDPDQVIRVVADLGLSDGRWTVVRSGLERTDQVVLSGA	-0.281
HMGQPRPLTAEDFDFLSDDEIAEMRKALSNGEMLRLRELIAQIGEKRPFLAERLLVLAKQYNYEDLSRLLE	-0.831
HMKEKPLWAIRITELREEHYFTQTDVSKALGIAQTTYAGYETGRHEPDFETMIKIADIYKVSLDYLIGR	-0.288
HMSQLETEEAKRIVLKDLLRLYNNYNIIELEEDEFDRFITYLNMPYDFLQKTSDYDLAVSIKRMYASY	-1.79
HMVQAQGARIREARVQRGLSQAQLGEPRYSGSYISHIENGRRSPGTDVLAFIAARLGLEPGALDS	-0.164
HMQFAEIPNFSEMALQILRLQADGLSITKIAEALHMNPRTVKYHAQENYRKLQASNKSEALLAARNLNL	-0.418
HMPSLSPDETVVVDALRQQNDMQINMISVKTNLPIARLSAILFEMELKGVLKPLAGGVYHLL	-0.0639
HMQDIDIVDLKRISELIYQKYNYDFRNYAMSSFKRRVQRIIELKKLTVDGLIKRLNDTPSFINEFLDELTV	-0.2
HMLPKTVTLIDPVSGVAKTVTWVPALTLYSARRKAGLNRVPNTATIDRGGRELTGKRGSTLQPGDVVRW	≥ 0.43
HMSKITNALLMMKLLSNGKVYSVKELSEELGVTERMVRNYKEQLEMSGYIIESFKGPGGGYFINKN	0.207
HMAEPRVQEVYFEFDGKQVEAGQVVSLIEQAYKNEGHQIGRIKDLKVYINSEEGKAYYVINGDDGEGKYIE	-0.67
HMLDRNKLNELDAYIESFEDKPSHLIMILHRAQGLFGYLPKELQIYVAEKTGVPAAKVYGVVTFYSFFTMK	-0.737
HMIANNFDEFVEKVSEAERKALNMPAGQEMTQKLLEMKLAANPNLTPEEWQRTKSEFMTFLFAVFVRE	-1.02
HMKKTITISNYINVRDFATMSELPVNSILSVLMKNGIFVSLNEKIDFDTAWLVGSELGLEVKQKQG	-0.818
HMTFAEADAQYEVIKQQYLAGALDEEQFDEQLHRLMVLDDGGLWWAKSRENGSWHYYDPDREDWIAATP	-0.995
HMELDFLRLQIITGIHSGRLSNNEILMMYDTYSQKGGNSYVSRIVNDYVDENNIKEEGKRNARK	-0.636
HMAKRQATIVYEGTNVRSGPSTSSAIVKRTGKGESYPIVSTKGDWYEIKLSNGDSAYVASWVVQTVD	-0.871
HMKQNSDDGEIRKIIIEILDNNLDNVNKYKSGRTNVLDFFVGQVMKQTRGQANPELTRSILTEELSN	0.00746
HMNNKSDLLFNHLRQRIATMENGTIFPSVRQLMTEYNVSQSTVSTAIRSLKELGLLEALSRQGMVVRKE	0.104
HMVTEIDYGAFIKMTEEGNIGEVKIEDNQIVFTDKENKAIYKTGIMPDSDLTQRLYDSGAVFA	-1.27
HMRTDTIINSGGLKINPEEVENEILKSLGDNNFFIDKIKNDKFGEEIILIALKKIKINLLIESLNLI	-0.286
HMTGTVKVNSLNVYKSASLDSEVKDTLVLNTKVTIAENGQVTDGIYVWGRLQSGEGYVQMNNLTL	-1.59
HMKEDFPLLEQLRYTGEGADVTGTAEKMESIQALRSAADSGGFRATLGDIQQIPGGGLRFTLSLRGSR	-0.226

Sequence	soluble fraction (log2)
HMADIGRMKELIDILNRASAVYYQGKDEIMSNFEYDKLYDELVSLEKESGLVLAGSPTQKVGY	-0.0716
HMEAQFIDINDVRIGTYVYVDLGWIKHPFALNSFKITSRDQIDTLIKLGVKRIRWSPEKSDS	-0.483
HMSSLQFVTLTLMEGHAWVGREIQELLMPPQMRIALIRRGDSQVIPKGSTILESADELILSAIEYQG	-2.51
HMGKIFSELTPREIEVVRLIADGLSNQQIAEELFLSNGTVRNHISTILEKTGLEHRTQIAVMWLR	-0.742
HMSFISRMVVAVEDIALSTRPNSTPSGDKYVSKGTVLLMEKRENDWVEVRQPSSPLSGWAPKTSLLSV	-0.426
HMNDILETISNQIRDLRVSKKITQQELAERTNLSVPYISQIENGHRNISLETFIKIVDALDIPLSDFFLP	-1.11
HMDIDLNTIKKITLDDIHAFLSYLTTTYHSKAATRARKASSIRVFFNYLSAKANLIEVNPAQNLETPKLD	0.0886
HMSFGYFQLRAKDPQKLKSVLEKIPQIQSIKEEKGDLIGYLNADMEAEELSQKLAAAKIFVTHMAKKK	0.216
HMRLSVVDLQDSLRGLEYPAGKGDLINHAREHNASADVIAVLEQFSERTYRSAADVGEEFGRV	-0.166
HMEDIVDLVVEPEAAGRRLDAWLASRIERLSRSRIKALIESGHVAIGGATIVEAKKPVNSGDVVQLSVPEG	-0.121
HMSDVLPEAILERRLVKKGNRAVPQVLIKWTKLPATSATWEDFYVLQQRFPTALAWGQAPSPGGQM	-0.213
HMNGYGALVRLGRSRGWVTVEEINDHLPESAVRTAENVQEITEALGRLSIKVFETRPDEDDLLIT	-0.613
HMQLTPAQHAILAKAIHSSDGKIEWFPDNVKGGARKKVLEGMFNRALITPDGEGWRIAAEGYDALGMPRP	0.165
HMQSREISYSEFVTAVEAGDVRNVTLDGEQVRFRRADGSDYVTIRPEDAEVTKLLMANDIPVRAEP	-0.198
HMQKMPEMQILPNGKVKLPDFSGINMRKAAELLQYGKLRLQPYGSGTAYQQKPAAGTEVDEGTVVEIWF	0.189
HMQAATQVNIVGLFSNKAVVIINGGKPKTLSVGQTSEGVKLLAADSQTATLQIEGKTQQLGMGQAASVGG	0.107
HMERFLENAIPVLGETGLDIKSATEDFENALIRQALHLSGGNKNRAATLLGLKRTTFVEMLKRKSL	-0.398
HMLAKYEIIKQDIIQMIEEKKFKPGDKIYSEGELKKIYNVSSTTVVRALQDLVLSGYLIRKQGEGTYVRK	0.222
HMNPSKEFNMSDLLKAKMVGDVSAAKRREKAGALLHIGYGNAKTFLKKLNHFSISREEWDKVIAAMEEF	0.0295
HMLGIGANVQKIAQERKISLKELSRRAGIPYTTIYNMVKRDSSRVSPENLQKLADALGVEIGKLYG	≥ 0.43
HMNPEDLSGVRKAAILLLTMDDEVTKDVMKGLDEEEIEAIGKEITNLKLIPDHVVHRVQEEFMTKVSK	-0.375
HMQYIINFEYSGMLLREYLRGVLGLSHGTLTALKKDPLGILLNGEHATVRAVLHAGDRLTLALE	-1.13
HMPQKIVIQKGVVIKKRERSDAWQIYITVKGKKPIRKSANTDNVEKAKQMALTLFAEKNYKVENNLPIQ	-0.0334
HMTSKTLSADGGENTRLDKFLSNHLPEISRTKIQKMINDGLVYVNQNYAKASLVLDGTELISYTIPD	0.263
HMGSNTLEDAYKVLGITPDATDDEVRKAYKKMVIQHHPDKVANLGEDVKKAATIKLQEINNAKEIIFKARN	0.192
